The target in assay [1] is T1, cynomolgus monkey Ly6E (native, in cynomolgus monkey tissues) (cynomolgus monkey, UniProt Q16553 21-101 (human entry)).
T1 construct: Endogenous protein in normal cynomolgus monkey tissue sections (IHC); also called cyno Ly6E
T1 chain: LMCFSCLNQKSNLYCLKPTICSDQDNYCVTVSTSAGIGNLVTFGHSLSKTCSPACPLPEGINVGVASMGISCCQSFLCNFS
The assay is described as follows: IHC on normal cynomolgus monkey tissues.

The target of assay [2] is T2, human Ly6E (native, in human tumor cells, xenograft tumors and human tissues) (human, UniProt Q16553 21-101).
T2 sequence: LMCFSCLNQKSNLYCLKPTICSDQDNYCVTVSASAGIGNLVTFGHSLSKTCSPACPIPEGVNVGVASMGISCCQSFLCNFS
The assay is described as follows: cell-based or functional assay.

B1: rabbit anti-Ly6E antibody clone GEN-93-8-1 (antibody, V domains shown)
VH: QSVEESGGRLVTPGTPLTLTCATSGFSLSIYDMTWVRQAPGKGLEWIGVIYTSGGAYYANWAKGRFTISRTSTTVDLRMTSPTTEDTATYFCVRNWAHGSDLWGQGTLVTVSS
VL: DPVVTQTPSSASAAVGGTVSISCQSSQSVYNNNYLGWYQQKPGQPPKLLIYDASKLASGVPSRFKASGSGTQFALTISDLECDDAATYYCVGGYPGSLNVFGGGTEVVVK
notes: Rabbit monoclonal IgG; also called antibody GEN-93-8-1
Turning to B1, the binding result in assay [1] is listed as “binds”.

B2: humanized anti-Ly6E (hu9B12 v12) ADC (MC-vc-PAB-MMAE) (antibody, V domains shown)
VH: EVQLVESGPALVKPTQTLTLTCTVSGFSLTGYSVNWIRQPPGKALEWLGMIWGDGSTDYNSALKSRLTISKDTSKNQVVLTMTNMDPVDTATYYCARDYYFNYASWFAYWGQGTLVTVSS
VL: DIQMTQSPSSLSASVGDRVTITCSASQGISNYLNWYQQKPGKTVKLLIYYTSNLHSGVPSRFSGSGSGTDYTLTISSLQPEDFATYYCQQYSELPWTFGQGTKVEIK
Consider B2, for which the “EC50 (cell killing, CellTiter-Glo, HCC1569 X2 cells, 5 days)” value in assay [2] stood at 4 nM.

(Values after US20170058042A1 (Genentech, published 2017).)
